Molecular target: VgrS (residues 81-729), Salmonella Typhimurium VgrG (Salmonella enterica serovar Typhimurium)
Assay: crystal structure

VgrS (residues 81-729), Salmonella Typhimurium VgrG (domain or fragment)
stoichiometry N: 3

Reference: article doi:10.1101/2024.12.20.629533
